In article PMC10418727, “Structural and Biochemical Insights into Bis(2-hydroxyethyl) Terephthalate Degrading Carboxylesterase Isolated from Psychrotrophic Bacterium Exiguobacterium antarcticum” (International Journal of Molecular Sciences, 2023):

Substrate: CC(=O)Oc1ccc([N+](=O)[O-])cc1
Experiment: purified protein
Type: biochemical, Exiguobacterium antarcticum
Details: optimal conditions (optimal pH 7.0), free enzyme

B1: EaEst2 (Exiguobacterium antarcticum) (protein)
chain: MKITLPKPFFFEGGNRAVLLLHGFTGSSADVRMLGRYLQKHGYTSLAPQYKGHAAPPEELTKTGPADWWQDVLDGYEELKAKGYDEIAVCGLSLGGVMSLRLSMHRPVKAVIPMCAPAYIKSEDVMYAGVTEYAREFKKREGKSVDEIEQEMAVFEPMPTLKDLQALLKETRDSLEDVYAPTLVVQARNDHMINTDSANIIHDGVSALQKELIWYENSGHVITLDKEKETLHQDIHEFLDGLNWSH
notes: full-length gene in pET-28a (NheI/XhoI), N-terminal 6xHis tag, E. coli BL21(DE3); monomer; catalytic triad Ser93, Asp190, His220; motif GLSLG 91-95
Km: 590 µM
